Consider five molecules from article PMC9482650, “Quantitative fragmentomics allow affinity mapping of interactomes” (Nature Communications, 2022).

Among the targets are DLG1_2, Q12959; DLG4_2, P78352; FRMPD2_3, Q68DX3; Inadl_3, Q8NI35; Inadl_5, Q8NI35; LIMK2, P53671; PDLIM1, O00151; TJP1_3, Q07157.
Common to all, as to experiment: holdup assay
Common to all, as to parameters: key: below the threshold = too weak to quantify, mostly under pKd 3.1 to 4
What all share (settings): plain residues with an end cap or a label only (N-terminal biotin on a linker: ado-ado)

In the next assay the target is T1, APBA2_2, Q99767.
T1 sequence (Q99767 654-744, limits assumed, looked up): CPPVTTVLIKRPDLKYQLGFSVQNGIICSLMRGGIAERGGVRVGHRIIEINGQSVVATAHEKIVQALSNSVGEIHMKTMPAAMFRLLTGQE

In the next assay the target is T2, ARHGAP21, Q5T5U3.
T2 sequence (Q5T5U3 45-169, limits assumed, looked up): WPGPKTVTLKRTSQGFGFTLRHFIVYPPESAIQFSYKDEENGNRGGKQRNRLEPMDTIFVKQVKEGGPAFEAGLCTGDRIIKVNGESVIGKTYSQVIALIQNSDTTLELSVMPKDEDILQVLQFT

In the next assay the target is T3, DLG3_2, Q92796.
T3 sequence (Q92796 221-321, limits assumed, looked up): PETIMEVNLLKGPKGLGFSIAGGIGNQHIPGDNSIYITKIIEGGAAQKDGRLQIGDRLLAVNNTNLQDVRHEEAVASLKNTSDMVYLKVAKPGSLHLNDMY

In a further assay the target is T4, DVL3, Q92997.
T4 sequence (Q92997 244-331, limits assumed, looked up): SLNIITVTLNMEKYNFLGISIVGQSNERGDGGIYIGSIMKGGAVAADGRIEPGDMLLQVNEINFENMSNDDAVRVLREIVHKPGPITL

Another assay has as its target T5, HTRA4, P83105.
T5 sequence (P83105 378-476, limits assumed, looked up): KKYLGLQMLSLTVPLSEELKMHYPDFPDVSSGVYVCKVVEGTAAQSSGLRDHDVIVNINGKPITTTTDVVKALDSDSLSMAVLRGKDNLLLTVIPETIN

Another assay has as its target T6, LNX2_3, Q8N448.
T6 sequence (Q8N448 463-564, limits assumed, looked up): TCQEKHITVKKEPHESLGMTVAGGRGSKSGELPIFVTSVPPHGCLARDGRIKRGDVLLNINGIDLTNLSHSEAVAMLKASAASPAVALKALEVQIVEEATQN

The target of another assay is T7, MPP6, Q9NZW5.
T7 sequence (Q9NZW5 125-219, limits assumed, looked up): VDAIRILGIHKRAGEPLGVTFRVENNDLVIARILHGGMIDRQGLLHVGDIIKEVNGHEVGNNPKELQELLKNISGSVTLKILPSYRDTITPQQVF

The target of another assay is T8, NHERF3_1, Q5T2W1.
T8 sequence (Q5T2W1 4-100, limits assumed, looked up): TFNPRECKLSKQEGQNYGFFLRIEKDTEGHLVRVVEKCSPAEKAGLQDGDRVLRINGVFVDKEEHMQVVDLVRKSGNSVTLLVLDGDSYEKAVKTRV

Another assay addresses T9, PDZD2_2, O15018.
T9 sequence (O15018 329-429, limits assumed, looked up): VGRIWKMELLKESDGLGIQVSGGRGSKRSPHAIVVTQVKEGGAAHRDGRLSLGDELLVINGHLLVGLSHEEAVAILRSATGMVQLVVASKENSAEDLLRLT

Another assay has as its target T10, RADIL, Q96JH8.
T10 sequence (Q96JH8 971-1071, limits assumed, looked up): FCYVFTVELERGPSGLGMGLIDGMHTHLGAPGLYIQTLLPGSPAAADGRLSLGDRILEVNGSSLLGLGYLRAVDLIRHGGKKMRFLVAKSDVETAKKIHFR

In a further assay the target is T11, RAPGEF6, Q8TEU7.
T11 sequence (Q8TEU7 525-625, limits assumed, looked up): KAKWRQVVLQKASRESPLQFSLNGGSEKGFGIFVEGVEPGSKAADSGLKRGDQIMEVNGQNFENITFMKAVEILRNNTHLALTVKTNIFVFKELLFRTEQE

In another assay the target is T12, SNTB1, Q13884.
T12 sequence (Q13884 107-205, limits assumed, looked up): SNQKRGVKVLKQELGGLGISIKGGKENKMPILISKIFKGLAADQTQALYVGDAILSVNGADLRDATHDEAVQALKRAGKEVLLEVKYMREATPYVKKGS

A further assay has as its target T13, SNTG1, Q9NSN8.
T13 sequence (Q9NSN8 52-150, limits assumed, looked up): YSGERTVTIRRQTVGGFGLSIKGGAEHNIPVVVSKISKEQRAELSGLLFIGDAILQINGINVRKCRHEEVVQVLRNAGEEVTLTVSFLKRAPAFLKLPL

Another assay addresses T14, TIAM2, Q8IVF5.
T14 sequence (Q8IVF5 885-986, limits assumed, looked up): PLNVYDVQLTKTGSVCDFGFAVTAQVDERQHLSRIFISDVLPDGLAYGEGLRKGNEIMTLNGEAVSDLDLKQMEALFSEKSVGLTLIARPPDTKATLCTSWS

Inadl_5, Q8NI35, sequence (Q8NI35 673-780): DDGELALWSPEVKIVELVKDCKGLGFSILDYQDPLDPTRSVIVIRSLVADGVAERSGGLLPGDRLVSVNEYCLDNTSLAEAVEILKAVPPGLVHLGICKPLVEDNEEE
FRMPD2_3, Q68DX3, sequence (Q68DX3 1073-1166): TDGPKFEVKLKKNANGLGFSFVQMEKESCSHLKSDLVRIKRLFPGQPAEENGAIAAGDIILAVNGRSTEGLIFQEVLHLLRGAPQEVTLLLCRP
PDLIM1, O00151, sequence (O00151 1-87): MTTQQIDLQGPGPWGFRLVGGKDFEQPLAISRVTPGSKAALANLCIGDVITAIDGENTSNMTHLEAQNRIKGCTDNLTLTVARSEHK
TJP1_3, Q07157, sequence (Q07157 416-512): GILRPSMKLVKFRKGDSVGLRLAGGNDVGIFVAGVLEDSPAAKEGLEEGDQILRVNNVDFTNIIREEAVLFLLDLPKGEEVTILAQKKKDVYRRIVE
LIMK2, P53671, sequence (P53671 143-248): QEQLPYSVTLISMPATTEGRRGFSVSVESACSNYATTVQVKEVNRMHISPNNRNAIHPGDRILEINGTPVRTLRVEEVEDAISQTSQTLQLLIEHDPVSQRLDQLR
DLG1_2, Q12959, sequence (Q12959 314-412): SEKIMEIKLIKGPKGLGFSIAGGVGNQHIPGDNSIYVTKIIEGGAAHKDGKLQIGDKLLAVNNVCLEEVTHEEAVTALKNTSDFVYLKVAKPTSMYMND
Inadl_3, Q8NI35, sequence (Q8NI35 359-469): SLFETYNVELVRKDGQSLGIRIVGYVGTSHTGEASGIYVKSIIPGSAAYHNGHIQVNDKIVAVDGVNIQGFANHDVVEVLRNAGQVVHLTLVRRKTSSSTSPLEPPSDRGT
DLG4_2, P78352, sequence (P78352 155-259): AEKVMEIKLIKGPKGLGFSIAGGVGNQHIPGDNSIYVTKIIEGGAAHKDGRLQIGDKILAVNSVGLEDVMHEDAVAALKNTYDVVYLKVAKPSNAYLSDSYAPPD

B1: GAS2L2, Q8NHY3 (peptide)
chain: PLPPEEESWV
As a reminder, the pKd is the negative decadic logarithm of the Kd, by convention in mol/L. On to B1, for which the pKd result with APBA2_2, Q99767 was “below the threshold”; with ARHGAP21, Q5T5U3, 4.15; with DLG1_2, Q12959, 4.67; with DLG3_2, Q92796 it was 4.64; in the assay with DLG4_2, P78352 it was 4.69; with DVL3, Q92997, 4.01. Further, the pKd was 4.04 with FRMPD2_3, Q68DX3; 3.59 in the assay with HTRA4, P83105; 3.78 in the assay with Inadl_3, Q8NI35; 4.29 with Inadl_5, Q8NI35; “below the threshold” with LIMK2, P53671; “below the threshold” in the assay with LNX2_3, Q8N448. For the same molecule, the pKd entry with MPP6, Q9NZW5 was “below the threshold”; with NHERF3_1, Q5T2W1, 4.86; with PDLIM1, O00151, 4.22; with PDZD2_2, O15018, 6.13; with RADIL, Q96JH8, 4.55; in the assay with RAPGEF6, Q8TEU7, 3.6. The pKd with SNTB1, Q13884 was determined as 4.86; with SNTG1, Q9NSN8 it was 5.6; with TIAM2, Q8IVF5, 4.17; with TJP1_3, Q07157 it was 3.63.

B2: CACNA1D, Q01668 (peptide)
chain: ADEMICITTL
Regarding B2, the negative logarithm of the Kd (pKd) entry with APBA2_2, Q99767 was “below the threshold”; with ARHGAP21, Q5T5U3 it was 3.67; in the assay with DLG1_2, Q12959 it was 4.06; in the assay with DLG3_2, Q92796, 4.46; with DLG4_2, P78352, 4.02; with DVL3, Q92997, “below the threshold”. For the same molecule, the negative logarithm of the Kd (pKd) entry was “below the threshold” with FRMPD2_3, Q68DX3; 4.36 with HTRA4, P83105; 4.53 with Inadl_3, Q8NI35; “below the threshold” with Inadl_5, Q8NI35; “below the threshold” with LIMK2, P53671; “below the threshold” with LNX2_3, Q8N448. Further, the pKd result in the assay with MPP6, Q9NZW5 is “below the threshold”; with NHERF3_1, Q5T2W1, 4.22; in the assay with PDLIM1, O00151, “below the threshold”; with PDZD2_2, O15018, 3.95; with RADIL, Q96JH8, 4.62; in the assay with RAPGEF6, Q8TEU7, 3.65. The negative-log Kd (pKd) with SNTB1, Q13884 was 4.84; in the assay with SNTG1, Q9NSN8 it was 4.32; in the assay with TIAM2, Q8IVF5 it was 4.19; with TJP1_3, Q07157 it was “below the threshold”.

B3: FAM167B, Q9BTA0 (peptide)
chain: NISARRFTLC
For the molecule B3, the negative-log Kd (pKd) entry with APBA2_2, Q99767 was “below the threshold”; with ARHGAP21, Q5T5U3, “below the threshold”; with DLG1_2, Q12959, 3.92; with DLG3_2, Q92796 it was 4.42; in the assay with DLG4_2, P78352, 4.13; with DVL3, Q92997, “below the threshold”. Also, the pKd result was “below the threshold” with FRMPD2_3, Q68DX3; 4.55 with HTRA4, P83105; “below the threshold” with Inadl_3, Q8NI35; “below the threshold” with Inadl_5, Q8NI35; “below the threshold” with LIMK2, P53671; “below the threshold” with LNX2_3, Q8N448. For the same molecule, the pKd result was “below the threshold” with MPP6, Q9NZW5; 4.11 with NHERF3_1, Q5T2W1; “below the threshold” with PDLIM1, O00151; “below the threshold” with PDZD2_2, O15018; 4.62 in the assay with RADIL, Q96JH8; “below the threshold” with RAPGEF6, Q8TEU7. For the same molecule, the negative-log Kd (pKd) with SNTB1, Q13884 is 3.52; with SNTG1, Q9NSN8, 3.48; with TIAM2, Q8IVF5, “below the threshold”; with TJP1_3, Q07157, “below the threshold”.

B4: DUSP5, Q16690 (peptide)
chain: RSPVATATSC
For B4, the negative-log Kd (pKd) result was “below the threshold” with APBA2_2, Q99767; “below the threshold” with ARHGAP21, Q5T5U3; “below the threshold” with DLG1_2, Q12959; 4.18 with DLG3_2, Q92796; “below the threshold” with DLG4_2, P78352; “below the threshold” with DVL3, Q92997. Also, the pKd result is “below the threshold” in the assay with FRMPD2_3, Q68DX3; “below the threshold” in the assay with HTRA4, P83105; “below the threshold” with Inadl_3, Q8NI35; “below the threshold” in the assay with Inadl_5, Q8NI35; “below the threshold” with LIMK2, P53671; “below the threshold” with LNX2_3, Q8N448. For the same molecule, the pKd result with MPP6, Q9NZW5 is “below the threshold”; with NHERF3_1, Q5T2W1, 3.53; with PDLIM1, O00151, “below the threshold”; with PDZD2_2, O15018 it was “below the threshold”; in the assay with RADIL, Q96JH8, “below the threshold”; in the assay with RAPGEF6, Q8TEU7, “below the threshold”. Besides, the pKd entry was “below the threshold” with SNTB1, Q13884; “below the threshold” in the assay with SNTG1, Q9NSN8; 4.09 with TIAM2, Q8IVF5; “below the threshold” with TJP1_3, Q07157.

B5: HDAC7, Q8WUI4 (peptide)
chain: LVEEEEPMNL
For the molecule B5, the negative logarithm of the Kd (pKd) result with APBA2_2, Q99767 was “below the threshold”; with ARHGAP21, Q5T5U3 it was 3.77; with DLG1_2, Q12959, “below the threshold”; with DLG3_2, Q92796 it was “below the threshold”; in the assay with DLG4_2, P78352, “below the threshold”; with DVL3, Q92997, “below the threshold”. The pKd result with FRMPD2_3, Q68DX3 is “below the threshold”; with HTRA4, P83105, 3.94; in the assay with Inadl_3, Q8NI35 it was “below the threshold”; with Inadl_5, Q8NI35, “below the threshold”; with LIMK2, P53671 it was “below the threshold”; in the assay with LNX2_3, Q8N448, “below the threshold”. Besides, the pKd was 3.57 in the assay with MPP6, Q9NZW5; “below the threshold” in the assay with NHERF3_1, Q5T2W1; “below the threshold” with PDLIM1, O00151; “below the threshold” in the assay with PDZD2_2, O15018; “below the threshold” with RADIL, Q96JH8; “below the threshold” with RAPGEF6, Q8TEU7. The negative logarithm of the Kd (pKd) entry with SNTB1, Q13884 is given as “below the threshold”; in the assay with SNTG1, Q9NSN8, “below the threshold”; with TIAM2, Q8IVF5 it was “below the threshold”; in the assay with TJP1_3, Q07157 it was “below the threshold”.
